Numbering of substitutions follows the chain as printed.
T1: His-tagged human FcγRIIA (H131) (human, UniProt P12318 36-218, limits assumed)
T1 construct: also called hFcyRIIA (H131)
T1 sequence (looked up): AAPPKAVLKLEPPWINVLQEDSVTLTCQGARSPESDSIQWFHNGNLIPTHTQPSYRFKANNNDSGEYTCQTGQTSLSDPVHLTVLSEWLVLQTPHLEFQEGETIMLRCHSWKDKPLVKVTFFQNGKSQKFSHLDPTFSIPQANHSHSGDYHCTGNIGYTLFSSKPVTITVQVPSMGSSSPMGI

T2: His-tagged cynomolgus FcγRIIB (cynomolgus monkey, UniProt A0A140HDP4 46-217)
T2 construct: also called cyno FcyRIIB
T2 sequence: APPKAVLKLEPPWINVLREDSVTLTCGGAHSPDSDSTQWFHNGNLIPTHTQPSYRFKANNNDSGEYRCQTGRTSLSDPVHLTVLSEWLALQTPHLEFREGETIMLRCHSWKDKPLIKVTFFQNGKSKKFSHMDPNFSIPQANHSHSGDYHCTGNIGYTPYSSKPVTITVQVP

T3: His-tagged cynomolgus FcγRIIA (cynomolgus monkey, UniProt A0A140HDN0 30-216)
T3 construct: also called cyno FcyRIIA
T3 sequence: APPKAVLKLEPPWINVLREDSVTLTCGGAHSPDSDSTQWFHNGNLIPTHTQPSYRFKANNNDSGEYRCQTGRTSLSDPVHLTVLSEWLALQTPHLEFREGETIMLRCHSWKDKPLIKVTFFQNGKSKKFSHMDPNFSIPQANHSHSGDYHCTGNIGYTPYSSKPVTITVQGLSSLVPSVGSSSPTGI

T4: His-tagged human FcγRIIA (R131) (human, UniProt P12318 36-218, limits assumed)
T4 construct: also called human FcyRIIA (R131)
T4 sequence (looked up): T1 sequence (looked up) with H132R

T5: His-tagged human FcγRIIB (human, UniProt P31994 46-217, limits assumed)
T5 construct: also called human FcyRIIB
T5 sequence (looked up): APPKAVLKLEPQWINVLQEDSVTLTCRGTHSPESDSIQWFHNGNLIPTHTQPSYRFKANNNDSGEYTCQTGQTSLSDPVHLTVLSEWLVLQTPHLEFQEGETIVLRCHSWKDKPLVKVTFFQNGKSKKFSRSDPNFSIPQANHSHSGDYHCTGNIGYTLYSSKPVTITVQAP

T6: human CD20 on cells (Raji, CD3-, CD20+ human B-cell line; B16F10.9/CD20 cells) (human, UniProt P11836 1-297)
T6 sequence (looked up): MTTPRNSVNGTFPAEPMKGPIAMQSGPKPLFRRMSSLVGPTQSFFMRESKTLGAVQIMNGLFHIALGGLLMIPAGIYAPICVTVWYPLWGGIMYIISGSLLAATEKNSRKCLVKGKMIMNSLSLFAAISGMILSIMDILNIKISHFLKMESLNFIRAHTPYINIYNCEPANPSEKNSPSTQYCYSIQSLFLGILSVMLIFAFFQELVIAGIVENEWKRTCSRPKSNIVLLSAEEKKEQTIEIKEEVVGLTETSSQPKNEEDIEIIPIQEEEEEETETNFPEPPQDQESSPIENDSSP

B1: Antibody 1 (CD3×CD20-chimericFc bispecific antibody) (bispecific antibody, human IgG4 S228P)
heavy 1: EVQLVESGGGLVQPGRSLRLSCVASGFTFNDYAMHWVRQAPGKGLEWVSVISWNSDSIGYADSVKGRFTISRDNAKNSLYLQMHSLRAEDTALYYCAKDNHYGSGSYYYYQYGMDVWGQGTTVTVSSASTKGPSVFPLAPCSRSTSESTAALGCLVKDYFPEPVTVSWNSGALTSGVHTFPAVLQSSGLYSLSSVVTVPSSSLGTKTYTCNVDHKPSNTKVDKRVESKYGPPCPPCPAPPVAGPSVFLFPPKPKDTLMISRTPEVTCVVVDVSQEDPEVQFNWYVDGVEVHNAKTKPREEQFNSTYRVVSVLTVLHQDWLNGKEYKCKVSNKGLPSSIEKTISKAKGQPREPQVYTLPPSQEEMTKNQVSLTCLVKGFYPSDIAVEWESNGQPENNYKTTPPVLDSDGSFFLYSRLTVDKSRWQEGNVFSCSVMHEALHNHYTQKSLSLSLGK
heavy 2: EVQLVESGGGLVQPGRSLRLSCAASGFTFDDYTMHWVRQAPGKGLEWVSGISWNSGSIGYADSVKGRFTISRDNAKKSLYLQMNSLRAEDTALYYCAKDNSGYGHYYYGMDVWGQGTTVTVASASTKGPSVFPLAPCSRSTSESTAALGCLVKDYFPEPVTVSWNSGALTSGVHTFPAVLQSSGLYSLSSVVTVPSSSLGTKTYTCNVDHKPSNTKVDKRVESKYGPPCPPCPAPPVAGPSVFLFPPKPKDTLMISRTPEVTCVVVDVSQEDPEVQFNWYVDGVEVHNAKTKPREEQFNSTYRVVSVLTVLHQDWLNGKEYKCKVSNKGLPSSIEKTISKAKGQPREPQVYTLPPSQEEMTKNQVSLTCLVKGFYPSDIAVEWESNGQPENNYKTTPPVLDSDGSFFLYSRLTVDKSRWQEGNVFSCSVMHEALHNRFTQKSLSLSLGK
VL: EIVMTQSPATLSVSPGERATLSCRASQSVSSNLAWYQQKPGQAPRLLIYGASTRATGIPARFSGSGSGTEFTLTISSLQSEDFAVYYCQHYINWPLTFGGGTKVEIKR
notes: Only the light chain variable region is tied to this antibody; also called Ab 1; Ab1
B2: (Control) Antibody 4, CD3×CD20 antibody-wild-type Fc (wtFc) (bispecific antibody, human IgG1)
heavy 1: not shown
heavy 2: not shown
VL: B1 VL
notes: Same variable regions as Antibody 1 and Antibody 2, wild-type IgG1 CH; also called Control Ab 4; Control 4
B3: Antibody 2 (CD3×CD20-chimericFc bispecific antibody) (bispecific antibody, human IgG1)
heavy 1: EVQLVESGGGLVQPGRSLRLSCVASGFTFNDYAMHWVRQAPGKGLEWVSVISWNSDSIGYADSVKGRFTISRDNAKNSLYLQMHSLRAEDTALYYCAKDNHYGSGSYYYYQYGMDVWGQGTTVTVSSASTKGPSVFPLAPSSKSTSGGTAALGCLVKDYFPEPVTVSWNSGALTSGVHTFPAVLQSSGLYSLSSVVTVPSSSLGTQTYICNVNHKPSNTKVDKKVEPKSCDKTHTCPPCPAPPVAGPSVFLFPPKPKDTLMISRTPEVTCVVVDVSQEDPEVQFNWYVDGVEVHNAKTKPREEQFNSTYRVVSVLTVLHQDWLNGKEYKCKVSNKGLPSSIEKTISKAKGQPREPQVYTLPPSRDELTKNQVSLTCLVKGFYPSDIAVEWESNGQPENNYKTTPPVLDSDGSFFLYSKLTVDKSRWQQGNVFSCSVMHEALHNHYTQKSLSLSPGK
heavy 2: EVQLVESGGGLVQPGRSLRLSCAASGFTFDDYTMHWVRQAPGKGLEWVSGISWNSGSIGYADSVKGRFTISRDNAKKSLYLQMNSLRAEDTALYYCAKDNSGYGHYYYGMDVWGQGTTVTVASASTKGPSVFPLAPSSKSTSGGTAALGCLVKDYFPEPVTVSWNSGALTSGVHTFPAVLQSSGLYSLSSVVTVPSSSLGTQTYICNVNHKPSNTKVDKKVEPKSCDKTHTCPPCPAPPVAGPSVFLFPPKPKDTLMISRTPEVTCVVVDVSQEDPEVQFNWYVDGVEVHNAKTKPREEQFNSTYRVVSVLTVLHQDWLNGKEYKCKVSNKGLPSSIEKTISKAKGQPREPQVYTLPPSRDELTKNQVSLTCLVKGFYPSDIAVEWESNGQPENNYKTTPPVLDSDGSFFLYSKLTVDKSRWQQGNVFSCSVMHEALHNRFTQKSLSLSPGK
VL: B1 VL
notes: also called Ab 2

What was measured:
[1] = biological target: T7, His-tagged human FcγRIIIA (V176) (human, UniProt P08637 17-208); assay: SPR steady-state, His-captured FcγR, antibody injected, 25 C
T7 construct: also called human FcyRIIIA (V176)
T7 sequence (P08637 17-208 F176V limits assumed): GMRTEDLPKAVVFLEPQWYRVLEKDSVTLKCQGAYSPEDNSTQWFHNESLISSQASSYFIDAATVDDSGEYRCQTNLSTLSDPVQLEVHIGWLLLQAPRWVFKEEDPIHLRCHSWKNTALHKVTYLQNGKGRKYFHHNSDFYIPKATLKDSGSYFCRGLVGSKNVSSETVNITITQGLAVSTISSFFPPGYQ

[2] = biological target: T1, His-tagged human FcγRIIA (H131); assay: as above
[3] = biological target: T8, His-tagged human FcγRIIIB (human, UniProt O75015 17-200); assay: as above
T8 construct: also called human FcyRIIIB
T8 sequence (O75015 17-200 limits assumed): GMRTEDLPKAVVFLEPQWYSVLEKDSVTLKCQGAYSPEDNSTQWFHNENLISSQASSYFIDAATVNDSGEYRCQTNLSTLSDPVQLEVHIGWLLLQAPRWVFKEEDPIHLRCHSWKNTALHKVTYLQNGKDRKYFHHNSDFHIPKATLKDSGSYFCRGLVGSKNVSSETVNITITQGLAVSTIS

[4] = biological target: T2, His-tagged cynomolgus FcγRIIB; assay: as above
[5] = biological target: T9, His-tagged human FcγRIIIA (F176) (human, UniProt P08637 17-208); assay: as above
T9 construct: also called human FcyRIIIA (F176)
T9 sequence (P08637 17-208 limits assumed): as the sequence (P08637 17-208 F176V limits assumed) above, with V160F counted along it

[6] = biological target: T3, His-tagged cynomolgus FcγRIIA; assay: as above
[7] = biological target: T4, His-tagged human FcγRIIA (R131); assay: as above
[8] = biological target: T5, His-tagged human FcγRIIB; assay: as above
[9] = biological target: T10, His-tagged cynomolgus FcγRIIIA (cynomolgus monkey, UniProt Q8SPW2 17-208, limits assumed); assay: as above
T10 construct: also called cyno FcyRIIIA
T10 sequence (Q8SPW2 17-208 limits assumed): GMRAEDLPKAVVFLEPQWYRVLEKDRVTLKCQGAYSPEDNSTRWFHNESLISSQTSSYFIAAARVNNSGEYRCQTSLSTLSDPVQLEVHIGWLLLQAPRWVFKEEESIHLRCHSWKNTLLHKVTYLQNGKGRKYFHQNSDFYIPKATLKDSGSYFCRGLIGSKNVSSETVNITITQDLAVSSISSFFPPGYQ

[10] = biological target: T6, human CD20 on cells (Raji, CD3-, CD20+ …); assay: cell-based or functional assay
[11] = biological target: T6, human CD20 on cells (Raji, CD3-, CD20+ …); assay: cell-based or functional assay; remark: listed apart in the source
[12] = biological target: T11, His-tagged human FcγRI (human, UniProt P12314 16-288); assay: SPR (Biacore T200), His-captured human FcγRI, antibody injected, 25 C
T11 construct: also called human FcRγI; hFcγRI
T11 sequence (P12314 16-288 limits assumed): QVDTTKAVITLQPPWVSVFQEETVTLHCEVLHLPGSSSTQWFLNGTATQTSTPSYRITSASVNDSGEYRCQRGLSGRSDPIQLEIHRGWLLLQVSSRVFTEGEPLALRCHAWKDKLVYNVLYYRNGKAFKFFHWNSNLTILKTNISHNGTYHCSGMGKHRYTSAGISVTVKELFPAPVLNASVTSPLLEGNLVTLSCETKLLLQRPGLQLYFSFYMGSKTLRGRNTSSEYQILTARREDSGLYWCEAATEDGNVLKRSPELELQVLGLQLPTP
Protocol: Briefly, SPR experiments were performed at 25° C. on a Biacore T200 instrument employing a carboxymethyl dextran-coated (CM-5) chip. A mouse monoclonal anti-penta-histidine antibody (GE Healthcare) was immobilized on the surface of the CM-5 sensor chip using standard amine-coupling chemistry. […] Kinetic association (kₐ) and dissociation (kd) rate constants were determined by processing and fitting the data to a 1:1 binding model using Scrubber 2.0 curve fitting software. Binding dissociation equilibrium constants (KD) and dissociative half-lives (t_{1/2}) were calculated from the kinetic rate constants as: KD (M)=kd/kₐ; and t_{1/2}(min)=(ln 2/(60*kd).

[13] = biological target: T6, human CD20 on cells (Raji, CD3-, CD20+ …); assay: cell-based or functional assay; remark: listed apart in the source
[14] = biological target: T12, cynomolgus CD3 on T cells of cynomolgus PBMCs (mkT cells) (cynomolgus monkey); assay: FACS, serially diluted antibody on cynomolgus PBMC T cells (mkT cells)
T12 construct: whole, on cells; also called cynomolgus T cells; monkey T-cells
Protocol: (§1) FACS data was acquired using the following protocol: Cells at 2×10⁵ per well were incubated with serially diluted antibodies for 30 min on ice. Post incubation, cells were washed and appropriate secondary (Jurkat, RAJI cells) or cocktail of secondary antibodies (for cyno PBMC) was added and incubated for an additional 30 minutes. After incubation, cells were washed, re-suspended in cold PBS containing 1% BSA and analyzed by flow cytometry on a BD FACS Canto II. Jurkat and Raji cells were gated by side and forward scatters, while cynomolgus T cells were also gated as a CD2+CD4+ population. The EC₅₀s for cell binding titration were determined using Prism software with values calculated using a 4-parameter non-linear regression analysis.

[15] = biological target: T13, human CD3 on Jurkat cells (CD3+, CD20- human T-cell line) (human, UniProt P07766 23-207; P04234 22-171; P09693 23-182; P20963 22-164); assay: FACS, serially diluted antibody on Jurkat cells (CD3+, CD20-)
T13 construct: whole, on cells; SP34 is said to react with the epsilon chain
Protocol: as §1

[16] = biological target: T6, human CD20 on cells (Raji, CD3-, CD20+ …); assay: FACS, serially diluted antibody on Raji cells (CD3-, CD20+)
Protocol: as §1

Binder | binding result [1] | Kd [2] | binding result [3] | Kd [4] | binding result [5] | Kd [6] | Kd [7] | Kd [8] | Kd [9] | Raji Cytotoxicity Activated Human T-cells [M] (EC50, calcein release) [10] | Raji Cytotoxicity Activated Monkey T-cells [M] (EC50, calcein release) [10] | % Survival B16F10.9/CD20 cells [M] (EC50, target-specific killing, FACS) [11] | binding result [12] | Raji Cytotoxicity Human T-cells [M] (EC50, calcein release) [13] | Raji Cytotoxicity Monkey T-cells [M] (EC50, calcein release) [13] | EC50 [14] | EC50 [15] | EC50 [16]
B1 | no binding | 120 nM | no binding | 139 nM | no binding | 231 nM | 193 nM | 1230 nM | 663 nM | 2.5e-11 M | 9.1e-12 M | 1.95e-11 M | no binding | – | – | – | – | –
B2 | – | – | – | – | – | – | – | – | – | 1.57e-11 M | 1.73e-12 M | 1.28e-11 M | – | 5.63e-11 M | 1.27e-12 M | 8740 nM | 38.5 nM | 59.9 nM
B3 | no binding | 117 nM | no binding | 146 nM | no binding | 235 nM | 205 nM | 2330 nM | 424 nM | – | – | – | no binding | – | – | – | – | –

From patent US20200115464A1 (Regeneron, published 2020)
